Experimental data taken from the supplement of paper PMC9170038.

System: MS2 coat protein
Assay: apparent KD of MS2 coat protein; designed switch direction (-1 OFF switch, 1 ON switch): 1; higher = weaker reporter binding
How it was run: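 The apparent KD reported per design is the median over clusters of curve fits to normalised cluster fluorescence. The RNA switches were transcribed on Illumina chips by stalled E. coli RNA polymerase. SNAP-549-labelled MS2 coat protein was titrated from 0.7 or 1.5 nM, doubling up to 3 µM, in Tris-HCl pH 7.5 buffer containing KCl, MgCl2, BSA, DTT, tRNA and Tween-20, with no input, 200 uM small-molecule ligand, or an oligonucleotide input.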

[1] = input ligand: microRNA oligo, concentration not stated
[2] = Eterna round: R95, input ligand: microRNA oligo, concentration not stated
[3] = Eterna round: R95, input ligand: FMN 200 uM
[4] = Eterna round: R95, input ligand: none

Sequence | apparent KD of MS2 coat protein (input ligand: FMN 200 uM) [nM] | apparent KD of MS2 coat protein [1] [nM] | apparent KD of MS2 coat protein (input ligand: none) [nM] | apparent KD of MS2 coat protein [2] [nM] | apparent KD of MS2 coat protein [3] [nM] | apparent KD of MS2 coat protein [4] [nM]
AGGAAACAUGAGGAUCACCCAUGUAAAAAAGUGGGAGGAUAUACUAGAAGAAACAAAAUAGUAGAAGGCCUAAAAA [75%, Ex sub1, 32] (Eterna round: R96, puzzle: Same State 1) | 19.1 | 37.7 | 42.3 |  |  | 
GCGAGGAUAUGCAGAGGAUCACCCUGUAGAAGGCGCAAAAGCGAGGAUAUGCAGAGGAUCACCCUGUAGAAGGCGCACUACUCU [pwkr ssNG3 DX 2xF5 +2xFMN.4] (Eterna round: R96, puzzle: Same State NG 3) | 153 | 161 | 221 |  |  | 
AGCUAGUACCGAGGAUAUACGAACAUGAGGAUCACCCAUGUAUACAUGGUUUAAUGAGACUACAUGUAGAAGGCGGUACUAGCA [SameState NG2 #11] (Eterna round: R96, puzzle: Same State NG 2) | 1110 | 281 | 624 |  |  | 
AGAGGAAGGGCAGGAUAUACGACGGAGGACGAGGUAGAAGGGUCCAUGUGAUAACAUGAGGAUCACCCAUGUACCGCGCGACGA [AK SSNG1-V2-18] (Eterna round: R96, puzzle: Same State NG 1) | 147 | 43.1 | 832 |  |  | 
UAUGAACAUGAGGAUCACCCAUGUGGUACGAUCACAGGAUAUCACCUCGGACGUGCGAUGUGAGAAGGGUGAUGGU [Same State 1 - Mod of Vinnie Anrelari v.1] (puzzle: Same State 1) |  |  |  | 63.1 |  | 
UGGUAACAUGAGGAUCACCCAUGUCAAAUGAAUCGAGGAUAUGGGAAUUAACAACACAAACUAGAAGGCGAAUUUG [Altered State 1-8 - Jieux - Same State 1] (Eterna round: R96, puzzle: Same State 1) | 316 | 151 | 314 |  |  | 
UGAAUAGUUACAGGAUAUCAUGCGAAAAUUGCGUGAGAAGGGUGGGUGUUGUGCGCUAAGUGCUACAUGAGGAUCACCCAUGUU [SameState NG1 #37] (Eterna round: R96, puzzle: Same State NG 1) | 325 | 28.8 | 213 |  |  | 
UUGUUUGGUAAAAUACAUGAGGAUCACCCAUGUUAUGGUGCAGAGGAUAUGCAUGUUUGAUUGAAGCAGAAGGCUGUAAGUUGU [JR_SSNG3_Sub036] (Eterna round: R96, puzzle: Same State NG 3) | 35.7 | 35.5 | 43.7 |  |  | 
GCGGAACAUGAGGAUCACCCAUGUAAAGGGUGUAAAGGAUAUUAUUGGGAGAAGGUAGGGUAAGAAGGUUGCUUGG [JR_SS1_Sub088] (puzzle: Same State 1) |  |  |  | 666 | 609 | 1240
UUGUUUUGAAAUUUACAUGAGGAUCACCCAUGUCGUGAGACAGAGGAUAUACAGGAAUGUAGGUAGUAGAAGGCUGUUUUGUGU [JR_SSNG3_Sub100] (Eterna round: R96, puzzle: Same State NG 3) | 49.5 | 97.6 | 123 |  |  | 
GCUCGAUGAACGUCCUACAUGAGGAUCACCCAUGUUCGUGGGCAGGAUAUUUACAUGCAGAGUGUAGAGAAGGGCCCAUCGAGC [SameState NG3 #64] (Eterna round: R96, puzzle: Same State NG 3) | 67.8 | 74.6 | 165 |  |  | 
UUAACAUGAGGAUCACCCAUGUAUAGGGAGUUUGCAAUUUGACAGGAUAUUGAAGAUUUAUAUAGCAAGAAGGGUCGUUAGUCU [JR_SSNG3_Sub005] (Eterna round: R96, puzzle: Same State NG 3) | 38 | 44.9 | 53.6 |  |  | 
AUGUAUCGCCUCGAGGAUAUCCUGUCAUGCACAUGAGGAUCACCCAUGUAAGAGCGAGUUUAAUGGGAGAAGGCGAGUUCUCGGU [JR_SS002_Sub1707] (Eterna round: R96, puzzle: Same State 2) | 46.9 | 78.5 | 106 |  |  | 
UGGUGUAACAUGAGGAUCACCCAUGUCACAACCCGGAUAGAGUAGGAUAUGGGCUGAUCACGCAUCCAGAAGGGCUCAUACUUU [Eternabot solution 19] (Eterna round: R96, puzzle: Same State NG 3) | 19.7 | 14.3 | 16.8 |  |  | 
GUGGUCAGACAUGAGGAUCACCCAUGUGGAAUAAAUAACGUCAAGGAUAUUCAAUAUAGGAUAUAGAAGAAGGUGAGAUUGGUG (Eterna round: R96, puzzle: Same State NG 3) |  | 142 |  |  |  | 
GAGUAGUUGGGAGGAUAUCGAUUGUUAUAGAAUCGAGAAGGUCCUAACAUGAGGAUCACCCAUGUAGGACUAUUCCUGUGUAUC [Parity 75 - Jieux - Same State NG 1] (Eterna round: R96, puzzle: Same State NG 1) | 9.81 | 7.5 | 10.6 |  |  | 
UAAAGAAAGCGAGGAUAUAGCCCAUGUGAAGAACUAGAAGGCGCAGACAUGAGGAUCACCCAUGUGUUCAUGAGGAGGAGGACA [Kawasakiqro] (Eterna round: R96, puzzle: Same State NG 1) | 88.6 | 51.9 | 57.7 |  |  | 
AUUAUACAUGAGGAUCACCCAUGUAAUUAAUUAAUUAAGAUCAAGGAUAUCAGCUCGAAUAGAGCUGAGAAGGUGAUCACAUGU [SSNG3/20-B1] (Eterna round: R96, puzzle: Same State NG 3) |  | 218 |  |  |  | 
UGGUACAUGGGAGGAUAUCUCAUGGAGACAUGAGGAUCACCCAUGUAGAUGGGCGGUAACGCCGGAGAGAAGGCCCAUGUACCU [JL SSNG1 3.70] (Eterna round: R96, puzzle: Same State NG 2) | 29.2 | 41.6 | 58.1 |  |  | 
GAUCGUUUGAUAGGAUAUCGCUAUACAUGAGGAUCACCCAUGUUUACCACGCUGGUUUUUCGUACCGAGAAGGAUUCUGAUGAU [JL JR sub007 mod 5] (Eterna round: R96, puzzle: Same State NG 2) | 31.4 | 24.4 | 35.4 |  |  | 
UCUGCAAUUAACGCCUACAUGAGGAUCACCCAUGUAUGUAGGCAGGAUAUCGUUUGCUUUGCAAACGAGAAGGGCUGUAGUAGC [salish99_SSNG3_R04_001] (Eterna round: R96, puzzle: Same State NG 3) | 52.4 | 49.2 | 61.6 |  |  | 
AUGAAGAAUUAAGGAUAUUGAUUACAUAUGUUUAACAUGAGGAUCACCCAUGUGGGUUGCGGUAUCGAGAAGGUAAAAUAAAAG [Mat - same State NG 2 - JL mod - D89] (Eterna round: R96, puzzle: Same State NG 2) | 252 | 193 | 213 |  |  | 
AUACUCAUGUAAGGAUAUGCAGCCGUUUCGGCUGCAGAAGGUACUAUAAUACAUGAGGAUCACCCAUGUCUCUCGCAUUGCGAG [JL SSNG1 1.47] (Eterna round: R96, puzzle: Same State NG 1) |  | 49.2 |  |  |  | 
GGUGACUUAAGAGGAUAUCCCGUAACAUUCGUCGAUACGAGACAUGAGGAUCACCCAUGUGAAAUGGAGAAGGCUUUCGCAAAG [Eternabot solution 48] (Eterna round: R96, puzzle: Same State NG 2) | 52.7 | 40 | 58.2 |  |  | 
CUAUCUACAGGUGUCUUUGCUCGUUUUAUACAUGAGGAUCACCCAUGUUAUAGCCCGGUGCUUGCGCUGGGCUGAUU [JL ViennaUCT Tearor mod 7] (puzzle: Sensor for hsa-mir-208a) |  |  |  | 15.5 | 100 | 95.3
CUGAGAUGUCAAGGAUAUCACGUCGAUUAGACGUGAGAAGGUGAUCAGUACAUGAGGAUCACCCAUGUGUUACAUGGAACUCAG [Brourd's SSNG1/1-A2 mod 9] (Eterna round: R96, puzzle: Same State NG 1) | 868 | 102 | 571 |  |  | 
UGGAUCUAGGCUUGCCUGGGUCCAUGUUGACAUGAGGAUCACCCAUGUGUAUUUUUUUAGCUUUUUGUUUGUCAACA [JL A Humble Attempt mod 5] (puzzle: Sensor for hsa-mir-208a) |  |  |  | 15.1 | 39 | 41.1
AUUAUUUAUGCAGGAUAUGAUUAACAUGAGGAUCACCCAUGUGGUGUUGUGAGUAAGGAGAGUGAUCAGAAGGGCAUUUUUUUG [JMF's solution 57] (Eterna round: R96, puzzle: Same State NG 2) | 666 | 451 | 350 |  |  | 
GUUAAACAUGAGGAUCACCCAUGUAAUAAUAUGGGAGGAUAUCAGAAAUUAUGUAUUAAAUGAGAAGGCCUAAUUG [Mat - Same State 1 - Mod of Eli - D80] (puzzle: Same State 1) |  |  |  | 585 | 125 | 769
AGUCCAGCCAAAGCUGGACAAAAGCAUGUACAUGAGGAUCACCCAUGUUCAUGUACAAGCUUUUUGCUCGUCUUAAA [Mat - hsa-mir-208a - Mod of JL - 56] (puzzle: Sensor for hsa-mir-208a) |  |  |  | 16.1 | 413 | 465
